Measurements from patent US20110110945A1, “Immunoglobulin Fusion Proteins and Methods of Making” (TransTech Pharma, Inc., priority 2007, published 2011).
“Also recorded” adds a separate entry of the source.

Key:
[1] = target: T1, amyloid-beta (Amyloid Beta (1-40)) (Homo sapiens, UniProt P05067); experiment: In vitro ligand binding assay (ELISA), immobilized amyloid-beta; conditions: ligand 5 micrograms per well; dilutions of initial fusion protein solution; FIG. 7
T1 construct: Amyloid Beta (1-40) from Biosource; purchased Biosource
T1 sequence (P05067 672-711 limits assumed): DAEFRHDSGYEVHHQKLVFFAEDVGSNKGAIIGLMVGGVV
Procedure: (§1) For example, the fusion protein may be used in a binding assay to identify potential ligands that bind to the non-immunoglobulin protein. In one example embodiment of such a binding assay, a known ligand may coated onto a solid substrate (e.g., Maxisorb plates) at a biologically relevant concentration (e.g., about 5 micrograms per well), where each well contains a total volume of about 100 microliters (μL). The plates may be incubated at 4° C. overnight to allow the ligand to bind to the substrate. Alternatively, shorter incubation periods at higher temperature (e.g., room temperature) may be used. After a period of time to allow for the ligand to bind to the substrate, the assay wells may be aspirated and a blocking buffer (e.g., 1% BSA in 50 mM imidizole buffer, pH 7.2) may be added to block nonspecific binding. […] The fusion protein bound to the immobilized ligand may be detected in a variety of ways. […] The bound complex may be detected by adding a substrate for the secondary antibody complex, e.g., the alkaline phosphatase substrate, para-nitrophenylphosphate (PNPP), and measuring conversion of PNPP to para-nitrophenol (PNP) as an increase in absorbance at 405 nm. […] In the absence of ligand (i.e., coating with only BSA) there was no increase in absorbance. The binding assay of the present invention may be used to quantify ligand binding. […]

[2] = Pharmacokinetic profile of TTP-4000 after IV injection; type: in vivo, monkeys; conditions: single IV bolus 5 mg/kg; plasma; once TTP-4000 has saturated its ligands; 2 animals; FIG. 11
Procedure: Following collection, the tubes were placed on wet ice (maximum 30 minutes) until centrifugation under refrigeration (at 2 to 8° C.) at 1500×g for 15 minutes. Each harvested plasma sample was then stored frozen (−70° C.±10° C.) until assayed for RAGE polypeptide using an ELISA at various time-points following the injection, as described in Example 6.
In FIG. 11 each curve represents a different animal under the same experimental conditions.
Initially, 50 uL of the RAGE specific monoclonal antibody 1HB1011 at a concentration of 10 ug/mL in 1×PBS pH 7.3 is coated on plates via overnight incubation. When ready for use, plates are washed three times with 300 uL of 1× Imidazole-Tween wash buffer and blocked with 1% BSA. […] The samples are allowed to incubate at room temperature for one hour. After incubation, the plates are plates are washed three times. A Goat Anti-human IgG1 1 (Sigma A3312) AP conjugate in 1×PBS with 1% BSA is added and allowed to incubate at room temperature for 1 hour. The plates are washed three times. Color was elucidated with paranitrophenylphosphate.

amphoterin = target: T2, amphoterin (Homo sapiens, UniProt P09429); experiment: In vitro ligand binding assay (ELISA), immobilized amphoterin; conditions: ligand 5 micrograms per well; dilutions of initial fusion protein solution; FIG. 7
T2 sequence (P09429 1-215): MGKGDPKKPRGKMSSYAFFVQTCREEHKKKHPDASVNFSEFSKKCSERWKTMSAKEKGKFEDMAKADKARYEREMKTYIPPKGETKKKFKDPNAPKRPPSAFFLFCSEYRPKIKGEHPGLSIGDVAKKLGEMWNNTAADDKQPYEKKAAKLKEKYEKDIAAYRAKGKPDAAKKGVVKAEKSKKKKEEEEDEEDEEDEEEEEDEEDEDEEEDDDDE
Procedure: as §1

[3] = test system: S100b/RAGE-induced production of TNF-α in THP-1 cells; experiment: Inhibition of S100b/RAGE-induced production of TNF-α in THP-1 cells; type: cell-based; conditions: 10 μg protein, FIG. 10
Description: One embodiment of a use of a RAGE fusion protein of the present invention to modulate expression of the cellular effector TNF-α is shown in FIG. 10. THP-1 myeloid cells may be cultured in RPMI-1640 media supplemented with 10% FBS and induced to secrete TNF-α via stimulation of RAGE with S100b. When such stimulation occurs in the presence of a RAGE fusion protein of the invention, induction of TNF-α by S100b binding to RAGE may be inhibited.
Previous work has shown that the myeloid THP-1 cells may secrete TNF-α in response to RAGE ligands. In this assay, THP-1 cells were cultured in RPMI-1640 media supplemented with 10% FBS using a protocol provided by ATCC. […] The amount of TNF-α secreted by the THP-1 cells was measured 24 hours after the addition of the proteins to the cell culture using a commercially available ELISA kit for TNF-α (R&D Systems, Minneapolis, Minn.).

B1: TTP-4000: RAGE fusion protein: V and C1 domains of human RAGE (amino acids 1-251) linked to hinge-less CH2 and CH3 of human IgG1; SEQ ID NO: 16/18 (protein)
chain 1: MAAGTAVGAWVLVLSLWGAVVGAQNITARIGEPLVLKCKGAPKKPPQRLEWKLNTGRTEAWKVLSPQGGGPWDSVARVLPNGSLFLPAVGIQDEGIFRCQAMNRNGKETKSNYRVRVYQIPGKPEIVDSASELTAGVPNKVGTCVSEGSYPAGTLSWHLDGKPLVPNEKGVSVKEQTRRHPETGLFTLQSELMVTPARGGDPRPTFSCSFSPGLPRHRALRTAPIQPRVWEPVPLEEVQLVVEPEGGAVAPPSVFLFPPKPKDTLMISRTPEVTCVVVDVSHEDPEVKFNWYVDGVEVHNAKTKPREEQYNSTYRVVSVLTVLHQDWLNGKEYKCKVSNKALPAPIEKTISKAKGQPREPQVYTLPPSRDELTKNQVSLTCLVKGFYPSDIAVEWESNGQPENNYKTTPPVLDSDGSFFLYSKLTVDKSRWQQGNVFSCSVMHEALHNHYTQKSLSLSPGK
chain 2: ENITARIGEPLVLKCKGAPKKPPQRLEWKLNTGRTEAWKVLSPQGGGPWDSVARVLPNGSLFLPAVGIQDEGIFRCQAMNRNGKETKSNYRVRVYQIPGKPEIVDSASELTAGVPNKVGTCVSEGSYPAGTLSWHLDGKPLVPNEKGVSVKEQTRRHPETGLFTLQSELMVTPARGGDPRPTFSCSFSPGLPRHRALRTAPIQPRVWEPVPLEEVQLVVEPEGGAVAPPSVFLFPPKPKDTLMISRTPEVTCVVVDVSHEDPEVKFNWYVDGVEVHNAKTKPREEQYNSTYRVVSVLTVLHQDWLNGKEYKCKVSNKALPAPIEKTISKAKGQPREPQVYTLPPSRDELTKNQVSLTCLVKGFYPSDIAVEWESNGQPENNYKTTPPVLDSDGSFFLYSKLTVDKSRWQQGNVFSCSVMHEALHNHYTQKSLSLSPGK
modifications: synthetic four domain RAGE-Fc IgG fusion protein; synthetic four domain RAGE-Fc IgG fusion protein having signal sequence removed
binding to immobilized amyloid-beta (increase in absorbance at 405 nm) [1]: able to bind; also recorded: specifically interact | terminal half-life [2]: greater than 300 hours | binding to immobilized amphoterin (increase in absorbance at 405 nm) (amphoterin): able to bind; also recorded: specifically interact | reduction of S100b induction of TNF-α ([3]; S100b 0.1 mg/ml FAC, TNF-α ELISA at 24 hours): ~70% | S100b induction of TNF-α, result in words ([3]; S100b 0.1 mg/ml): at least as effective
